Measurements published in patent US20110287023A1 (AstraZeneca / MedImmune, published 2011).

Tests used:
[1] = target: T1, HMG1 B Box peptide amino acids 150-183; test: ELISA, HMG1 B Box peptide 150-183 coated at 10 ug/ml, antibody titrated, anti-human IgG-HRP, OD 450
T1 peptide: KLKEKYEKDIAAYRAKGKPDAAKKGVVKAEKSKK
Description: (§1) The plate was then blocked with 4% milk powder dissolved in PBS at 37° C. for 1 hour. The blocking solution was removed and replaced with human anti-HMG1 antibodies at various concentrations (see FIGS. 5A-B). […] HRP activity was detected with Sureblue HRP substrate (KPL). Plates were read at 450 nm using a Kinetic Microplate Reader (Molecular Devices). […] After washing and blocking with 1% BSA in PBS, the biotinylated peptides were individually added into the avidin coated wells and incubated for 30 min at room temperature. The serial diluted antibody G4, S16 and S6 at the initial concentration at 10 μg/ml were then transferred into the wells followed by adding mouse anti human IgG-HRP conjugate (Pierce). Detection was accomplished by adding 50 μl of tetramethylbenzidine (TMB) substrate (KPL) and the absorbance was read at 450 nm.

[2] = target: T2, recombinant HMG1 produced in E. coli as a calmodulin binding protein (CBP) fusion (human); test: cell-based or functional assay
[3] = target: T3, HMG1 B Box peptide amino acids 91-169; test: ELISA, HMG1 B Box peptide 91-169 coated at 10 ug/ml, antibody titrated, anti-human IgG-HRP, OD 450
T3 construct: also called HMG1 peptide 91-169
T3 peptide: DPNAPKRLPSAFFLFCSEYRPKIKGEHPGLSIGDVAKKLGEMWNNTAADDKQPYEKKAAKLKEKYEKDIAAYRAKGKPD
Description: as §1

[4] = target: T4, HMG2 coated on ELISA plates (Bos taurus (Bovine), UniProt P40673 2-209); test: direct ELISA, HMGB2 coated at 5 ug/mL, antibody at 10 ug/mL, anti-human kappa/lambda-HRP, OD 490
T4 construct: also called HMGB2; HMBG2
T4 sequence: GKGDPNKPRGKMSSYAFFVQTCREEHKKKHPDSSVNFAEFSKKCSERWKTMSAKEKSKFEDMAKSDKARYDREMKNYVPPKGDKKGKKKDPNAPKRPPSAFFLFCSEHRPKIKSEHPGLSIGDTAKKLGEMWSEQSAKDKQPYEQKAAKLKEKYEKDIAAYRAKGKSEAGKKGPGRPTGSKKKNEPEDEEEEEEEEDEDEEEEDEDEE
Description: (§2) Binding to HMG1 vs. HMG2: Ultra high-binding ELISA plates (ThermoLab systems, #3855) were coated with either 5 ug/mL of Calf thymus HMGB1 or HMBG2 diluted in 10 mM Phosphate buffered saline (PBS), pH 7.2 and incubate overnight at 4 degrees. The plates were washed twice with Ca and Mg free PBS and 100 microliters of anti-HMGB1 antibody diluted in 10 mM PBS, pH 7.2+1% bovine serum albumin (BSA) to a final concentration of 10 ug/mL was added to each well and the plates were incubated 1 hour at room temperature. The wells were washed three times with 100 μl of PBS, pH 7.2. HRP labeled goat-anti-human IgG Kappa-chain (KPL, #14-10-10) and goat-anti-human IgG Lambda-chain (KPL, #14-10-11) were diluted in 10 mM PBS+1% BSA 1:1000 and 100 μl were added to each well and incubated for 1 hour at room temperature. The wells were then washed three times with 100 μl of PBS, pH 7.2. OPD substrate (Pierce chemical company, #34006) was prepared following the manufacturers instructions and 100 μl of prepared substrate was added to each well and the plates incubated at room temperature in the dark for 20-30 minutes. The reaction was stopped with the addition of 100 μl of 2M H₂SO₄, and the plates read on a plate reader at a wavelength of 490 nm.

[5] = target: T5, HMG1 purified from calf (bovine) thymus (bovine, UniProt P10103 2-215); test: direct ELISA, calf thymus HMGB1 coated at 5 ug/mL, antibody at 10 ug/mL, anti-human kappa/lambda-HRP, OD 490
T5 construct: also called Calf thymus HMGB1; thymus HMG1
T5 sequence (looked up): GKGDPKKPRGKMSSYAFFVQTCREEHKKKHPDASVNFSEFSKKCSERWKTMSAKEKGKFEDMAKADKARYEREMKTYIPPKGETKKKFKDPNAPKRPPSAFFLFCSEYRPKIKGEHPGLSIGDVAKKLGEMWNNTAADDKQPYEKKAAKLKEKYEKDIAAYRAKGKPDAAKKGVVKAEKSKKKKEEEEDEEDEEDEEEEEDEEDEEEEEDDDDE
Description: as §2

[6] = target: T1, HMG1 B Box peptide amino acids 150-183; test: ELISA, HMG1 B Box peptide 150-183 coated at 10 ug/ml, antibody titrated, OD 450
Description: as §1

[7] = target: T3, HMG1 B Box peptide amino acids 91-169; test: ELISA, HMG1 B Box peptide 91-169 coated at 10 ug/ml, antibody titrated, OD 450
Description: as §1

[8] = target: T2, recombinant HMG1 produced in E. coli as …; test: BIAcore 3000, mAb amine-coupled to CM5, HMG1 injected, steady-state model
Description: HMG1 Binding Affinity via BIAcore Analysis: All experiments were performed on a BIAcore 3000 instrument (BIAcore, Inc., Piscataway, N.J.). Briefly, each mAb was immobilized to a CM5 sensor chip using a standard amine coupling chemistry. Separately a reference (control) flow cell was also prepared. Two-fold, serial dilutions of HMG1 in instrument buffer were sequentially injected at a slow flow rate over the individual mAb and reference flow-cell surfaces. Following the binding and dissociation of HMG1, the mAbs surfaces were regenerated with a brief pulse of 1M NaCl-50 mM NaOH. At the end of each experiment, the binding curves were evaluated using a steady-state model available through the BIAevaluation software supplied by BIAcore, Inc. (Piscataway, N.J.).

[9] = target: T6, HMGB1 in human brain tissue of multiple sclerosis plaques (human, UniProt P09429 1-215); test: staining of human brain tissue
T6 construct: whole, on cells; tissue staining; also called HMGB1 in MS plaques
T6 sequence (looked up): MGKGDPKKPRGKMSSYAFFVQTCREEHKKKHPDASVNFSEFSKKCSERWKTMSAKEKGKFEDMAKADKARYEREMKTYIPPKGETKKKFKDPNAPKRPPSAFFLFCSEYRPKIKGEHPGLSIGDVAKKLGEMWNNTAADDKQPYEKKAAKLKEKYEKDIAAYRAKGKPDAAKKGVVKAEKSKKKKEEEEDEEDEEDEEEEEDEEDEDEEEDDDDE

[10] = target: T7, mouse RAGE/Fc fusion protein (mouse, UniProt Q62151 24-342, limits assumed); test: ELISA (right panel): RAGE-Fc immobilized, HMGB1 titrated in the presence of 0.03 µM CpG-A
T7 construct: not shown: Fc part, not described
T7 sequence (Q62151 24-342 limits assumed): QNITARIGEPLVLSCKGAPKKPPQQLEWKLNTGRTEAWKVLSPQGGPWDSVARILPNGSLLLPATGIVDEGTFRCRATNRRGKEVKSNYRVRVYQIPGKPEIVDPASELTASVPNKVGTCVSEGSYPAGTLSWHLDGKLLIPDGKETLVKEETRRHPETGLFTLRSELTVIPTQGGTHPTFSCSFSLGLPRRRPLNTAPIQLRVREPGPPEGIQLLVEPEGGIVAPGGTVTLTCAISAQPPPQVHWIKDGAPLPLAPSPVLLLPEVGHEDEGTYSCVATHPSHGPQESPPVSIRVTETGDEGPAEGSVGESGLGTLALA

B1: human anti-HMG1 antibody S12 (antibody, IgG1, V domains shown)
VH: EVQLLESGGGLVQPGGSLRLSCAASGFTFSKYIMHWVRQAPGKGLEWVSGIVPSGGLTEYADSVKGRFTISRDNSKNTLYLQMNSLRAEDTATYYCAKEIFGQFDYWGQGTLVTVSS
VL: AQSALTQPPSVSAAPRQRVTISCSGSTSNIGNNAVTWYQYFPGKAPKLLIYSDNQRPSGVPDRFSGSKSGTSASLAITGLQAEDEADYYCQSYDRGLSVVFGGGTKLTVL
notes: full length IgG1 made from a human Fab phage clone
- binding result [1]: binds
- IC50 IL-6 [2]: 1.67 nM
- binding result [3]: binds
- binding result [4]: binds
- binding result [5]: binds

B2: human anti-HMG1 antibody G16 (antibody, IgG1, V domains shown)
VH: EVQLLESGGGLVQPGGSLRLSCAASGFTFSWYKMTWVRQAPGKGLEWVSSISPSGGFTSYADSVKGRFTISRDNSKNTLYLQMNSLRAEDTAVYYCARDLDIRHAFDIWGQGTMVTVSS
VL: DIQMTQSPGTLSLSPGESGTLSCRASESVSSRHFAWYQQKPGQAPRLLIYGASSRPTGIPDRFSGSGSGTDFTLTLSRLEPEDFAVYFCQYYGSSPYTFGGGTKVEMK
notes: as for B1
- binding result [6]: no binding (tested: 10 ug/ml (log 1.0))
- IC50 IL-6 [2]: 1.06 nM
- IC50 NO [2]: 22 µg/mL
- binding result [7]: no binding (tested: 10 ug/ml (log 1.0))
- Kd [8]: 22 nM
- binding result [9]: binds

B3: complex of thymus HMGB1 with CpG-A DNA (other, bovine, UniProt P10103 2-215, looked up)
chain: T5 sequence (looked up)
notes: also called HMGB1/CpG complex; HMGB1/CpG A complex
- EC50 (read off the curve) [10]: ~100 nM
